Data from patent US20040242851A1 (published 2004).

Assays:
Flt-1-Fc fusion protein [1] = biological target: T1, Flt-1-Fc fusion protein (UniProt P17948 27-756, limits assumed); experiment: direct binding ELISA on immobilized Flt-1, detection with anti-E tag antibody-HRP, A450
T1 construct: Bought from R&D Systems; also called immobilized Flt-1; not shown: Fc
Description: (§1) Two assays were carried out to determine the dual antigen binding capability of the diabody. First, a cross-linking assay was used to investigate whether the diabody is capable of binding both of its target antigens simultaneously. Briefly, the diabody or its parent scFv were first incubated in a 96-well Maxi-sorp microtiter plate (Nunc, Roskilde, Denmark) precoated with Flt-1-Fc fusion protein (1 μg/ml×[…] per well overnight at 4° C.) at room temperature (RT) for 1 h. The plate was washed three times with PBS containing 0.1% Tween (PBST), followed by incubation with KDR-AP fusion protein at RT for additional 1 h. The plate-bound KDR-AP was then quantified by the addition of AP substrate, p-nitrophenyl phosphate (Sigma, St. Louis, Mo.), followed by reading of the absorbance at 405 nm (Lu, D. et al., 1999). In the second, direct binding assay, various amounts of diabody or scFv were added to KDR or Flt-1 coated 96-well plates and incubated at RT for 1 h, after which the plates were washed 3 times with PBST. The plates were then incubated at RT for 1 h with 100 μl of an anti-E tag antibody-HRP conjugate (Amersham Pharmacia Biotech). The plates were washed, peroxidase substrate added, and the absorbance at 450 nm read following the procedure described previously (Lu, D. et al., 1999).
(§2) The antigen binding efficiency of the diabody was determined on immobilized KDR and Flt-1. […]

Flt-1-Fc fusion protein [2] = biological target: T1, Flt-1-Fc fusion protein; experiment: blocking ELISA: antibody pre-mixed with Flt-1-Fc, transferred to immobilized PlGF; plate-bound Flt-1-Fc detected with anti-human Fc-HRP, A450
Description: The assays followed previously described protocols (Zhu, Z. et al., 1998; Lu, D. et al., 1999). Briefly, various amounts of the diabody or scFv were mixed with a fixed amount of KDR-AP (100 ng) or Flt-1-Fc fusion protein (50 ng) and incubated at RT for 1 h. The mixture were then transferred to 96-well microtiter plates precoated with VEGF₁₆₅ (200 ng/well) or PlGF (200 ng/well) and incubated at RT for an additional 2 h, after which the plates were washed 5 times with PBS. For the KDR-AP assay, the substrate for AP was added, followed by reading of the absorbance at 405 nm to quantify the plate-bound KDR-AP. For the Flt-1-Fc assay, the plate was incubated with a mouse anti-human Fc-HRP conjugate to quantify the plate-bound Flt-1-Fc.

Flt-1-Fc fusion protein [3] = biological target: T1, Flt-1-Fc fusion protein; experiment: BIAcore SPR, Flt-1-Fc immobilized on the chip, antibody injected
Description: (§3) The binding kinetics of the diabody and its parent scFv to KDR and Flt-1 were measured using a BIAcore biosensor (Pharmacia Biosensor). KDR-AP or Flt-1-Fc fusion protein was immobilized onto a sensor chip and soluble antibodies were injected at concentrations ranging from 1.5 nM to 100 nM. Sensorgrams were obtained at each concentration and were analyzed with, BIA Evaluation 2.0, a program to determine the rate constants kon and koff. The affinity constant, Kd, was calculated from the ratio of rate constants koff/kon.

[4] = biological target: KDR on human umbilical vein endothelial cells (HUVEC) (human, UniProt P35968 20-1356); experiment: cell-based or functional assay
Sequence of KDR on human umbilical vein endothelial cells (HUVEC) (P35968 20-1356): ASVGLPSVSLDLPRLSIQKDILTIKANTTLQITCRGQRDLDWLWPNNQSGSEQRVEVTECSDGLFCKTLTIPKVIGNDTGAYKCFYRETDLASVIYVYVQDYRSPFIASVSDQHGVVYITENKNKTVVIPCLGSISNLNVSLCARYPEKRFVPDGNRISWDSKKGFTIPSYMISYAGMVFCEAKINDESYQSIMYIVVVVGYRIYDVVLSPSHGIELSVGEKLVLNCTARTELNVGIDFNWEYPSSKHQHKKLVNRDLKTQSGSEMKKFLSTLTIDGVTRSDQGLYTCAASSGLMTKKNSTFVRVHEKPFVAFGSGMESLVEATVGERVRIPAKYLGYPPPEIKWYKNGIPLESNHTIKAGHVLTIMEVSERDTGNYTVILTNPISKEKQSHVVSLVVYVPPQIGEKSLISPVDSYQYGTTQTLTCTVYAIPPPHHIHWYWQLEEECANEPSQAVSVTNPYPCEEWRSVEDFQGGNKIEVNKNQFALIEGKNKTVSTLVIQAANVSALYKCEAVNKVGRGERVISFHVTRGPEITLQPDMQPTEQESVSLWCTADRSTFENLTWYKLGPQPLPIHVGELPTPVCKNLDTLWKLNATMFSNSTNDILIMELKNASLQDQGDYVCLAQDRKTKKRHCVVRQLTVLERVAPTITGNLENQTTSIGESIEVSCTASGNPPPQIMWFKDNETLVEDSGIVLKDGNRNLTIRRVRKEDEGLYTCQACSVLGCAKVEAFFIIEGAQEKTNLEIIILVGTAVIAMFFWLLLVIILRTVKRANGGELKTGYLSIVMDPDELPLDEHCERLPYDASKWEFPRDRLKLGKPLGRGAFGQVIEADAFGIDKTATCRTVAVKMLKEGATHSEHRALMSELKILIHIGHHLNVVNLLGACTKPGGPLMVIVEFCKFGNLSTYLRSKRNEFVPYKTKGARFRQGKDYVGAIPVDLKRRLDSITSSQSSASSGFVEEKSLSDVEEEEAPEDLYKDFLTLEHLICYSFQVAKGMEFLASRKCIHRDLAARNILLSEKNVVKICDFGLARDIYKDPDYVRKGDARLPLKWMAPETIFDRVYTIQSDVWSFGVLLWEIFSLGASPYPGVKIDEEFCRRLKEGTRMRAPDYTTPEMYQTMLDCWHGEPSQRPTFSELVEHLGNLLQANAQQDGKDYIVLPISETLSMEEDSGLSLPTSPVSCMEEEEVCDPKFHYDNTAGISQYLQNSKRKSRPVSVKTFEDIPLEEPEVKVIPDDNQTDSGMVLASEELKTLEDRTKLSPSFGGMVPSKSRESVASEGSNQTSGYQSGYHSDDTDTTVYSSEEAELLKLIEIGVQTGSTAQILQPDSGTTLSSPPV

[5] = biological target: T2, soluble fusion protein KDR-alkaline phosphatase (AP) (human, UniProt P35968 20-764); experiment: direct binding ELISA on immobilized KDR, detection with anti-E tag antibody-HRP, A450
T2 construct: Expressed in stably transfected NIH 3T3 cells; also called KDR-AP; soluble KDR; not shown: alkaline phosphatase (AP)
T2 sequence (P35968 20-764): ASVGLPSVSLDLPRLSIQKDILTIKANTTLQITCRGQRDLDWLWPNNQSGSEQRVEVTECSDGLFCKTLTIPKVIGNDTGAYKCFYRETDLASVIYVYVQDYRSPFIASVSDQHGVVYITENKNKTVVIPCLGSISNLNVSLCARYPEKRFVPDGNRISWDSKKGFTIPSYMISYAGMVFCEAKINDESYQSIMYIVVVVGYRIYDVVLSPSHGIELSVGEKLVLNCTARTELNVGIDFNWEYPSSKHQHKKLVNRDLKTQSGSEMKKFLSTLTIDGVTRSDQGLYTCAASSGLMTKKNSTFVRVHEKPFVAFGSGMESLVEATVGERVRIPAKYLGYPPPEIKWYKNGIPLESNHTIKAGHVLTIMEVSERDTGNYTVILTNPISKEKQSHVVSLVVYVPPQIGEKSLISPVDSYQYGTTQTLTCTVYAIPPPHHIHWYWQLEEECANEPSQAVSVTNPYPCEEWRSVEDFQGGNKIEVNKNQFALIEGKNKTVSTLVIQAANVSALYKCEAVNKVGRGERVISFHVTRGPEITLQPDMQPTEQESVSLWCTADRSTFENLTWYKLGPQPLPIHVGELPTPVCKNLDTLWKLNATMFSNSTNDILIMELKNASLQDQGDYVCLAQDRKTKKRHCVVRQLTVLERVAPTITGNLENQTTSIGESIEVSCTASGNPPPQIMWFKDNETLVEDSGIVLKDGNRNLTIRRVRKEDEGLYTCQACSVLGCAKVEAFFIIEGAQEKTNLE
Description: as §1, §2

[6] = biological target: T2, soluble fusion protein KDR-alkaline …; experiment: BIAcore SPR, KDR-AP immobilized on the chip, antibody injected
Description: as §3

T1 sequence (P17948 27-756 limits assumed): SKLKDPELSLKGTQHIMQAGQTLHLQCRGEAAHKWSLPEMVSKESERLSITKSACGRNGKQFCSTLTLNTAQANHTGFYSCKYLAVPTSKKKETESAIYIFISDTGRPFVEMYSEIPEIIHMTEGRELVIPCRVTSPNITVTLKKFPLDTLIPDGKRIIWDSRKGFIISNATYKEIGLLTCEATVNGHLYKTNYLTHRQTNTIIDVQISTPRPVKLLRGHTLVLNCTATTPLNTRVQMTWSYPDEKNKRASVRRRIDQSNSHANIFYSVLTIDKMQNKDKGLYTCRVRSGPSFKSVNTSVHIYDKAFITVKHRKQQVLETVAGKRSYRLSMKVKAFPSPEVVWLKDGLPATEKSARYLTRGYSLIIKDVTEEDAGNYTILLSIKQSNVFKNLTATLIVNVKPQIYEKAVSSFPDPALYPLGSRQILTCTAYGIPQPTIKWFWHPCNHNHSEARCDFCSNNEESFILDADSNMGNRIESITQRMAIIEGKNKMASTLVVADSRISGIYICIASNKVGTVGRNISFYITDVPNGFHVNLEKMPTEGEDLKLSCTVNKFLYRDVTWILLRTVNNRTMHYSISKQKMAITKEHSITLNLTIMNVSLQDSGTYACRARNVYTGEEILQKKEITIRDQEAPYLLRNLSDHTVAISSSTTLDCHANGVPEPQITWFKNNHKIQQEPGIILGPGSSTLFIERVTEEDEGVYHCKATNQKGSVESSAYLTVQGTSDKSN

EC50 (read off the curve) (Flt-1-Fc fusion protein [1])	IC50 (read off the curve) (Flt-1-Fc fusion protein [2])	Kd (Flt-1-Fc fusion protein [3])	koff (Flt-1-Fc fusion protein [3])	kon (Flt-1-Fc fusion protein [3])	binding result (Flt-1-Fc fusion protein [1])	VEGF-stimulated HUVEC mitogenesis ([3H]-TdR incorporation), IC50 [4]	EC50 (read off the curve) [5]	Kd [6]	koff [6]	kon [6]	Binder
~0.6 nM	~1 nM	9.8 nM	0.00236 s⁻¹	241000 M⁻¹ s⁻¹	–	–	–	–	–	–	scFv 6.12 (scFv, not shown: small tags and cut ends, The soluble scFv from pCANTAB 5E carried a C-terminal E tag (detected with anti-E tag) whose letters the patent does not give; it is left out., VH-(GGGGS)3-VL, expressed from pCANTAB 5E in E. coli) scFv: QVKLQQSGAELVKPGASVKLSCTASGFNIKDTYIHWVKQSPEQGLEWIGRIDPPNDNTKYDPKFQGKATITADTSSNTAYMQLRSLTSEDTAVYYCALPPFYFDYWGHGTTVTVSSGGGGSGGGGSGGGGSDIELTQSPKFMSTSVGDRVSVTCKASQNVDTNVAWYQQKPGQSPKALIYSASYRYSGVPDRFTGSGSGTDFTLTISNVQSEDLAEYFCQQYNSFPYTFGGGTKLEIK
–	–	–	–	–	no binding (tested: about 50 nM)	~2 nM	~0.4 nM	1.68 nM	0.000121 s⁻¹	74200 M⁻¹ s⁻¹	scFv p1C11 (scFv, soluble form made in E. coli; also called KDR-specific scFv p1C11) scFv: QVKLQQSGAELVGSGASVKLSCTTSGFNIKDFYMHWVKQRPEQGLEWIGWIDPENGDSDYAPKFQGKATMTADSSSNTAYLQLSSLTSEDTAVYYCNAYYGDYEGYWGQGTTVTVSSGGGGSGGGGSGGGGSDIELTQSPAIMSASPGEKVTITCSASSSVSYMHWFQQKPGTSPKLWIYSTSNLASGVPARFSGSGSGTSYSLTISRMEAEDAATYYCQQRSSYPFTFGSGTKLEIK
